# Starred links: 1 amine or outer side, 2 acyl side, 3 side chain; linkers in the order of their positions; H or OH if unused. Non-standard residues stand in square brackets, D forms with d. Groups on a side chain read outwards from the residue. No end group written: not given here. *: point of attachment. γGlu = O=C(O)[C@H](CCC(=O)[*:2])N[*:1]; Palmitoyl = CCCCCCCCCCCCCCCC(=O)*; αMeF = C[C@](N)(Cc1ccccc1)C(=O)O; αMeK = C[C@](N)(CCCCN)C(=O)O; αMeS = C[C@](N)(CO)C(=O)O; Aib = CC(C)(N)C(=O)O
# T1: GLP-1R (INS1e assay) (UniProt P32301 22-463, limits assumed)
# T1 sequence (looked up): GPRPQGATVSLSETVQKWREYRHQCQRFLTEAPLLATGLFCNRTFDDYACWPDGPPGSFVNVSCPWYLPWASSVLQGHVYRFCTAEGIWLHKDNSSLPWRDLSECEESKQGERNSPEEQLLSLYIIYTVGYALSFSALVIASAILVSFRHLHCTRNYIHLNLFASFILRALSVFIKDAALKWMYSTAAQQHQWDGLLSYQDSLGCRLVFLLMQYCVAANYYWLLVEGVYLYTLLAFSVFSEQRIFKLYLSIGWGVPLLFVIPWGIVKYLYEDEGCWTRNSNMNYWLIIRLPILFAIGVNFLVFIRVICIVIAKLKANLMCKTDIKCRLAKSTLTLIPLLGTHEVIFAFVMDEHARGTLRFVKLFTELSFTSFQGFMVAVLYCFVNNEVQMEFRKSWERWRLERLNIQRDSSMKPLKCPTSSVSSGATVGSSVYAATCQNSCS
# Molecular target: T1, GLP-1R (INS1e assay)
# Experiment: cell-based or functional assay
Binder,INS1e assay EC50 GLP-1 R n1,INS1e assay EC50 GLP-1 R n2,INS1e assay EC50 Mean pM GLP-1R
H[Aib]EGS[αMeF]TSDV[αMeS]S[αMeF]LEGEAA[αMeK]E[αMeF]IAK([γGlu-Palmitoyl])VV[αMeK]GG-NH2 (N-terminus assumed; SMILES CCCCCCCCCCCCCCCC(=O)N[C@@H](CCC(=O)NCCCC[C@H](NC(=O)[C@H](C)NC(=O)[C@@H](NC(=O)[C@](C)(Cc1ccccc1)NC(=O)[C@H](CCC(=O)O)NC(=O)[C@](C)(CCCCN)NC(=O)[C@H](C)NC(=O)[C@H](C)NC(=O)[C@H](CCC(=O)O)NC(=O)CNC(=O)[C@H](CCC(=O)O)NC(=O)[C@H](CC(C)C)NC(=O)[C@](C)(Cc1ccccc1)NC(=O)[C@H](CO)NC(=O)[C@](C)(CO)NC(=O)[C@@H](NC(=O)[C@H](CC(=O)O)NC(=O)[C@H](CO)NC(=O)[C@@H](NC(=O)[C@](C)(Cc1ccccc1)NC(=O)[C@H](CO)NC(=O)CNC(=O)[C@H](CCC(=O)O)NC(=O)C(C)(C)NC(=O)[C@@H](N)Cc1c[nH]cn1)[C@@H](C)O)C(C)C)[C@@H](C)CC)C(=O)N[C@H](C(=O)N[C@H](C(=O)N[C@@](C)(CCCCN)C(=O)NCC(=O)NCC(N)=O)C(C)C)C(C)C)C(=O)O) [SEQ ID NO 75],0.0497 nM,0.063 nM,56 pM
H[Aib]EGS[αMeF]TSDV[αMeS]S[αMeF]LEGEAA[αMeK]E[αMeF]IA[αMeF]VVK([γGlu-Palmitoyl])GG-NH2 (N-terminus assumed; SMILES CCCCCCCCCCCCCCCC(=O)N[C@@H](CCC(=O)NCCCC[C@H](NC(=O)[C@@H](NC(=O)[C@@H](NC(=O)[C@](C)(Cc1ccccc1)NC(=O)[C@H](C)NC(=O)[C@@H](NC(=O)[C@](C)(Cc1ccccc1)NC(=O)[C@H](CCC(=O)O)NC(=O)[C@](C)(CCCCN)NC(=O)[C@H](C)NC(=O)[C@H](C)NC(=O)[C@H](CCC(=O)O)NC(=O)CNC(=O)[C@H](CCC(=O)O)NC(=O)[C@H](CC(C)C)NC(=O)[C@](C)(Cc1ccccc1)NC(=O)[C@H](CO)NC(=O)[C@](C)(CO)NC(=O)[C@@H](NC(=O)[C@H](CC(=O)O)NC(=O)[C@H](CO)NC(=O)[C@@H](NC(=O)[C@](C)(Cc1ccccc1)NC(=O)[C@H](CO)NC(=O)CNC(=O)[C@H](CCC(=O)O)NC(=O)C(C)(C)NC(=O)[C@@H](N)Cc1c[nH]cn1)[C@@H](C)O)C(C)C)[C@@H](C)CC)C(C)C)C(C)C)C(=O)NCC(=O)NCC(N)=O)C(=O)O) [SEQ ID NO 72],4.26 nM,8.07 nM,6160 pM
H[Aib]EGS[αMeF]TSDV[αMeS]S[αMeF]LEGEAA[αMeK]E[αMeF]IA[αMeF]VV[αMeK]K([γGlu-Palmitoyl])G-NH2 (N-terminus assumed; SMILES CCCCCCCCCCCCCCCC(=O)N[C@@H](CCC(=O)NCCCC[C@H](NC(=O)[C@](C)(CCCCN)NC(=O)[C@@H](NC(=O)[C@@H](NC(=O)[C@](C)(Cc1ccccc1)NC(=O)[C@H](C)NC(=O)[C@@H](NC(=O)[C@](C)(Cc1ccccc1)NC(=O)[C@H](CCC(=O)O)NC(=O)[C@](C)(CCCCN)NC(=O)[C@H](C)NC(=O)[C@H](C)NC(=O)[C@H](CCC(=O)O)NC(=O)CNC(=O)[C@H](CCC(=O)O)NC(=O)[C@H](CC(C)C)NC(=O)[C@](C)(Cc1ccccc1)NC(=O)[C@H](CO)NC(=O)[C@](C)(CO)NC(=O)[C@@H](NC(=O)[C@H](CC(=O)O)NC(=O)[C@H](CO)NC(=O)[C@@H](NC(=O)[C@](C)(Cc1ccccc1)NC(=O)[C@H](CO)NC(=O)CNC(=O)[C@H](CCC(=O)O)NC(=O)C(C)(C)NC(=O)[C@@H](N)Cc1c[nH]cn1)[C@@H](C)O)C(C)C)[C@@H](C)CC)C(C)C)C(C)C)C(=O)NCC(N)=O)C(=O)O) [SEQ ID NO 71],0.604 nM,0.841 nM,723 pM
H[Aib]EGS[αMeF]TSDV[αMeS]S[αMeF]LEGEAA[αMeK]E[αMeF]IK([γGlu-Palmitoyl])[αMeF]VV[αMeK]GG-NH2 (N-terminus assumed; SMILES CCCCCCCCCCCCCCCC(=O)N[C@@H](CCC(=O)NCCCC[C@H](NC(=O)[C@@H](NC(=O)[C@](C)(Cc1ccccc1)NC(=O)[C@H](CCC(=O)O)NC(=O)[C@](C)(CCCCN)NC(=O)[C@H](C)NC(=O)[C@H](C)NC(=O)[C@H](CCC(=O)O)NC(=O)CNC(=O)[C@H](CCC(=O)O)NC(=O)[C@H](CC(C)C)NC(=O)[C@](C)(Cc1ccccc1)NC(=O)[C@H](CO)NC(=O)[C@](C)(CO)NC(=O)[C@@H](NC(=O)[C@H](CC(=O)O)NC(=O)[C@H](CO)NC(=O)[C@@H](NC(=O)[C@](C)(Cc1ccccc1)NC(=O)[C@H](CO)NC(=O)CNC(=O)[C@H](CCC(=O)O)NC(=O)C(C)(C)NC(=O)[C@@H](N)Cc1c[nH]cn1)[C@@H](C)O)C(C)C)[C@@H](C)CC)C(=O)N[C@@](C)(Cc1ccccc1)C(=O)N[C@H](C(=O)N[C@H](C(=O)N[C@@](C)(CCCCN)C(=O)NCC(=O)NCC(N)=O)C(C)C)C(C)C)C(=O)O) [SEQ ID NO 76],0.326 nM,0.531 nM,429 pM
H[Aib]EGS[αMeF]TSDV[αMeS]S[αMeF]LEGEAA[αMeK]K([γGlu-Palmitoyl])[αMeF]IA[αMeF]VV[αMeK]GG-NH2 (N-terminus assumed; SMILES CCCCCCCCCCCCCCCC(=O)N[C@@H](CCC(=O)NCCCC[C@H](NC(=O)[C@](C)(CCCCN)NC(=O)[C@H](C)NC(=O)[C@H](C)NC(=O)[C@H](CCC(=O)O)NC(=O)CNC(=O)[C@H](CCC(=O)O)NC(=O)[C@H](CC(C)C)NC(=O)[C@](C)(Cc1ccccc1)NC(=O)[C@H](CO)NC(=O)[C@](C)(CO)NC(=O)[C@@H](NC(=O)[C@H](CC(=O)O)NC(=O)[C@H](CO)NC(=O)[C@@H](NC(=O)[C@](C)(Cc1ccccc1)NC(=O)[C@H](CO)NC(=O)CNC(=O)[C@H](CCC(=O)O)NC(=O)C(C)(C)NC(=O)[C@@H](N)Cc1c[nH]cn1)[C@@H](C)O)C(C)C)C(=O)N[C@@](C)(Cc1ccccc1)C(=O)N[C@H](C(=O)N[C@@H](C)C(=O)N[C@@](C)(Cc1ccccc1)C(=O)N[C@H](C(=O)N[C@H](C(=O)N[C@@](C)(CCCCN)C(=O)NCC(=O)NCC(N)=O)C(C)C)C(C)C)[C@@H](C)CC)C(=O)O) [SEQ ID NO 79],0.289 nM,0.527 nM,408 pM

# Second part, the binder after the results:
INS1e assay EC50 GLP-1 R n1,INS1e assay EC50 GLP-1 R n2,INS1e assay EC50 Mean pM GLP-1R,Binder
0.345 nM,0.346 nM,346 pM,H[Aib]EGS[αMeF]TSDV[αMeS]S[αMeF]LEGEAA[αMeK]EK([γGlu-Palmitoyl])IA[αMeF]VV[αMeK]GG-NH2 (N-terminus assumed; SMILES CCCCCCCCCCCCCCCC(=O)N[C@@H](CCC(=O)NCCCC[C@H](NC(=O)[C@H](CCC(=O)O)NC(=O)[C@](C)(CCCCN)NC(=O)[C@H](C)NC(=O)[C@H](C)NC(=O)[C@H](CCC(=O)O)NC(=O)CNC(=O)[C@H](CCC(=O)O)NC(=O)[C@H](CC(C)C)NC(=O)[C@](C)(Cc1ccccc1)NC(=O)[C@H](CO)NC(=O)[C@](C)(CO)NC(=O)[C@@H](NC(=O)[C@H](CC(=O)O)NC(=O)[C@H](CO)NC(=O)[C@@H](NC(=O)[C@](C)(Cc1ccccc1)NC(=O)[C@H](CO)NC(=O)CNC(=O)[C@H](CCC(=O)O)NC(=O)C(C)(C)NC(=O)[C@@H](N)Cc1c[nH]cn1)[C@@H](C)O)C(C)C)C(=O)N[C@H](C(=O)N[C@@H](C)C(=O)N[C@@](C)(Cc1ccccc1)C(=O)N[C@H](C(=O)N[C@H](C(=O)N[C@@](C)(CCCCN)C(=O)NCC(=O)NCC(N)=O)C(C)C)C(C)C)[C@@H](C)CC)C(=O)O) [SEQ ID NO 78]
0.0774 nM,0.127 nM,102 pM,H[Aib]EGS[αMeF]TSDV[αMeS]S[αMeF]LEGEAA[αMeK]E[αMeF]IA[αMeF]K([γGlu-Palmitoyl])V[αMeK]GG-NH2 (N-terminus assumed; SMILES CCCCCCCCCCCCCCCC(=O)N[C@@H](CCC(=O)NCCCC[C@H](NC(=O)[C@](C)(Cc1ccccc1)NC(=O)[C@H](C)NC(=O)[C@@H](NC(=O)[C@](C)(Cc1ccccc1)NC(=O)[C@H](CCC(=O)O)NC(=O)[C@](C)(CCCCN)NC(=O)[C@H](C)NC(=O)[C@H](C)NC(=O)[C@H](CCC(=O)O)NC(=O)CNC(=O)[C@H](CCC(=O)O)NC(=O)[C@H](CC(C)C)NC(=O)[C@](C)(Cc1ccccc1)NC(=O)[C@H](CO)NC(=O)[C@](C)(CO)NC(=O)[C@@H](NC(=O)[C@H](CC(=O)O)NC(=O)[C@H](CO)NC(=O)[C@@H](NC(=O)[C@](C)(Cc1ccccc1)NC(=O)[C@H](CO)NC(=O)CNC(=O)[C@H](CCC(=O)O)NC(=O)C(C)(C)NC(=O)[C@@H](N)Cc1c[nH]cn1)[C@@H](C)O)C(C)C)[C@@H](C)CC)C(=O)N[C@H](C(=O)N[C@@](C)(CCCCN)C(=O)NCC(=O)NCC(N)=O)C(C)C)C(=O)O) [SEQ ID NO 74]

# Reference: patent US20200079833A1 (AstraZeneca / MedImmune, published 2020)
